The labels stand for the following.
T1: human CCR3 (human, UniProt P51677 1-355)
T1 construct: whole, on cells; also called hCCR3; CHO-S-hCCR3 (expressing cells)
T1 sequence (looked up): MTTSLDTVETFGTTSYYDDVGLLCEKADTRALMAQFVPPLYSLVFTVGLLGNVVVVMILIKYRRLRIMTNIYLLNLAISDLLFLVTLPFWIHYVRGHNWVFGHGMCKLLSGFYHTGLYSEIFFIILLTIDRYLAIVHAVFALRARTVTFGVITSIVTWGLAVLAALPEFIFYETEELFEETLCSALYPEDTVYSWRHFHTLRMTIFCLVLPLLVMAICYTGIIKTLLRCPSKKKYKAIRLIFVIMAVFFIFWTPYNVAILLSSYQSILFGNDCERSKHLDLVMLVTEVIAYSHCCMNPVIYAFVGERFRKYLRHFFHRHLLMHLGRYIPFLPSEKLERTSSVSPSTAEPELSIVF

T2: human CC chemokine receptor 1 (human CCR1) (human, UniProt P32246 1-355)
T2 construct: endogenous on THP-1 cells in the migration assays; also called hCCR1; CHO-S-hCCR1 (expressing cells)
T2 sequence: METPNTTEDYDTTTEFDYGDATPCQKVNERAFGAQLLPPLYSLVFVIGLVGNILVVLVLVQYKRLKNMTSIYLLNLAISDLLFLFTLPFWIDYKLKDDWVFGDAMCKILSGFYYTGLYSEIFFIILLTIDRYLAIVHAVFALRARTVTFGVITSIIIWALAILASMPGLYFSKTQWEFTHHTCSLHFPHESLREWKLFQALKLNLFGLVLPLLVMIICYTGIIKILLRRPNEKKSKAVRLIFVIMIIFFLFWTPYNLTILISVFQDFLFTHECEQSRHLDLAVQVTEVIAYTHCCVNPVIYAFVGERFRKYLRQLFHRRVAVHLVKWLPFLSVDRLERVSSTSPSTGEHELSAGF

B1: KM5954 antibody (antibody, mouse IgG2a, V domains shown)
VH: QVQLKESGPGLVAPSQSLSITCTVSGFSLPRYTITWVRQPPGKGLEWLGLIRTGGGTIYNSALKSRLSISKDNSKSQVFLKMNSLQSGDTARYYCARNGAYYSKSGSYWYFDVWGTGTTVTVSS
VL: QIVLTQSPAIMSVSLGEEITLTCSASSSVSYMHWYQQKSGTSPKLLIYSTSNLASGVPSRFSGSGSGTFYSLTISSVEAEDAADYYCHQWSSHPCTFGGGTKLEIK
notes: mouse IgG2a from hybridoma
B2: KM5956 antibody (antibody, mouse IgG2a, V domains shown)
VH: QVQLKESGPGLVAPSQSLSITCTVSGFSLARYTITWVRQPPGKGLEWLGLIRTGGGTIYNSALKSRLSISKDNSKSQVFLKMNSLQSGDTARYYCARNGAYYSNSGSYWYFDVWGTGTTVTVSS
VL: QIVLTQSPAIMSASLGEEITLTCSASSSVTYMHWYQQKSGTSPKLLIYSTSNLASGVPSRFSGSGSGTFYSLTISSVEAEDAADYYCHQWSSHPCTFGGGAKLEIK
notes: mouse IgG2a from hybridoma
B3: KM5908 antibody (antibody, mouse IgG2a, V domains shown)
VH: QVQLKQSGPGLVQPSQSLSITCTVSGFSLNNYGVHWVRQPPGKGLEWLGVIWSAGTTVYNAAFISRLSISKDDSKSQVFFKMNSLQAGDTAIYYCAKDGSRYYTAMDYWGQGTSVTVSS
VL: DVVMTQTPRSLPVSLGDQASISCRSRQSLIHSNGITFLHWYLQKAGQSPKLLIYKVSNRFSGVPDRFSGSGSGTDFTLRISRVEAEDLGVYFCSQGTHVPPTFGGGTKLEIK
notes: mouse IgG2a from hybridoma
B4: KM5907 antibody (antibody, mouse IgG1, V domains shown)
VH: EVQVVESGGNLVKPGGSLKLSCSASGFTFSRYGMSWVRQTPDKRLEWVASISATFTYTYYTDNVKGRFTISRDNAKNTLYLQMSSLRSEDTGMYYCTRQDNYAWFDSWGQGTLVTVSA
VL: DVLMTQTPLSLPVSLGDQVSISCRSSQSIVHSNGNTFLEWYLKKPGQSPKLLIYKVSSRFSGVPDRFSGSGSGTDFTLKIRRVEADDLGVYYCFQGSHIPWTFGGGTNLEIK
notes: mouse IgG1 from hybridoma
B5: KM5909 antibody (antibody, mouse IgG1, V domains shown)
VH: EVQLVESGGDLVKPGGSLKLSCAASGFTLSNYGMSWVRQTPDKRLEWVASISIGNYIYYLDSVKGRFTIYRDNAKNTLFLQMRSLKSEDTAMYHCARQGNDYDWFTYWGQGTLVTVSA
VL: DVLMTQTPLSLPVSLGDQASISCRSSQSVVHTNGNTYLEWYLQKPGQSPKLLIYKVSNRFSGVPDRFSGSGSGTDFTLKINRVEAEDLGVYYCFQGSHLPWTFGGGTKLEIK
notes: mouse IgG1 from hybridoma
B6: chKM5908′ mut29 (antibody, V domains shown)
VH: QVQLKQSGPGLVQPSQSLSITCTVSGFSLNNYGVHWVRQPPGKGLEWLGVTWSAGTTVYNAAFISRLSISKDDSKSQVFFKMNSLQAGDTAIYYCAKDGSRYYTAMDYWGQGTSVTVSS
VL: DVVMTQTPLSLPVSLGDQASIFCRSSQSLVHRNGITFAHWYLQKPGQSPKLLIYKISNRFSGVPDRFSGSGSGTDFTLKISRVAPDDLGVYFCSQGTHVPPTFGGGTKLEIK
B7: chKM5908′ mut25 (antibody, V domains shown)
VH: QVQLKQSGPGLVQPSQSLSITCTVSGFSLNNYGVHWVRQPPGKGLEWLGVTWSAGTTVYNAAFISRLSISKDDSKSQVFFKMNSLQAGDTAIYYCAKDGSRYYTAMDYWGQGTSVTVSS
VL: DVVMTQTPLSLPVSLGDQASIFCRSSQSLVHRNGITFFHWYLQKPGQSPKLLIYKVSNKFSGVPDRFSGSGSGTDFTLKISRVAPDDLGVYFCSQGTHVPPTFGGGTKLEIK
B8: chKM5908′ mut24 (antibody, V domains shown)
VH: QVQLKQSGPGLVQPSQSLSITCTVSGFSLNNYGVHWVRQPPGKGLEWLGVTWSAGTTVYNAAFASRLSISKDDSKSQVFFKMNSLQAGDTAIYYCAKDGSRAYAAMDYWGQGTSVTVSS
VL: DVVMTQTPLSLPVSLGDQASIFCRSSQSLVHRNGITFFHWYLQKPGQSPKLLIYKISNRFSGVPDRFSGSGSGTDFTLKISRVAPDDLGVYFCSQGTHVPPTFGGGTKLEIK
B9: chKM5908′ mut31 (antibody, V domains shown)
VH: QVQLKQSGPGLVQPSQSLSITCTVSGFSLNNYGVHWVRQPPGKGLEWLGVTWSAGTTAYNAAFASRLSISKDDSKSQVFFKMNSLQAGDTAIYYCAKDGSRYYTAMDYWGQGTSVTVSS
VL: DVVMTQTPLSLPVSLGDQASIFCRSSQSLVHRNGITFAHWYLQKPGQSPKLLIYKISNRFSGVPDRFSGSGSGTDFTLKISRVAPDDLGVYFCSQGTHVPPTFGGGTKLEIK
B10: chKM5908′ mut26 (antibody, V domains shown)
VH: QVQLKQSGPGLVQPSQSLSITCTVSGFSLNNYGVHWVRQPPGKGLEWLGVIWSAGTTVYNAAAISRLSISKDDSKSQVFFKMNSLQAGDTAIYYCAKDGSRYYTAMDYWGQGTSVTVSS
VL: DVVMTQTPLSLPVSLGDQASIFCRSSQSLVHRNGITFFHWYLQKPGQSPKLLIYKVSNKFSGVPDRFSGSGSGTDFTLKISRVAPDDLGVYFCSQGTHVPPTFGGGTKLEIK
B11: chKM5908′ mut27 (antibody, V domains shown)
VH: QVQLKQSGPGLVQPSQSLSITCTVSGFSLNNYGVHWVRQPPGKGLEWLGVTWSAGTTAYNAAFASRLSISKDDSKSQVFFKMNSLQAGDTAIYYCAKDGSRYYTAMDYWGQGTSVTVSS
VL: DVVMTQTPLSLPVSLGDQASIFCRSSQSLVHRNGITFFHWYLQKPGQSPKLLIYKVSNKFSGVPDRFSGSGSGTDFTLKISRVAPDDLGVYFCSQGTHVPPTFGGGTKLEIK
B12: chKM5908′ mut32 (antibody, V domains shown)
VH: QVQLKQSGPGLVQPSQSLSITCTVSGFSLNNYGVHWVRQPPGKGLEWLGVTWSAGTTVYNAAFASRLSISKDDSKSQVFFKMNSLQAGDTAIYYCAKDGSRAYAAMDYWGQGTSVTVSS
VL: DVVMTQTPLSLPVSLGDQASIFCRSSQSLVHRNGITFAHWYLQKPGQSPKLLIYKISNRFSGVPDRFSGSGSGTDFTLKISRVAPDDLGVYFCSQGTHVPPTFGGGTKLEIK
B13: chKM5908′ mut30 (antibody, V domains shown)
VH: QVQLKQSGPGLVQPSQSLSITCTVSGFSLNNYGVHWVRQPPGKGLEWLGVIWSAGTTVYNAAAISRLSISKDDSKSQVFFKMNSLQAGDTAIYYCAKDGSRYYTAMDYWGQGTSVTVSS
VL: DVVMTQTPLSLPVSLGDQASIFCRSSQSLVHRNGITFAHWYLQKPGQSPKLLIYKISNRFSGVPDRFSGSGSGTDFTLKISRVAPDDLGVYFCSQGTHVPPTFGGGTKLEIK
B14: chKM5908′ mut28 (antibody, V domains shown)
VH: QVQLKQSGPGLVQPSQSLSITCTVSGFSLNNYGVHWVRQPPGKGLEWLGVTWSAGTTVYNAAFASRLSISKDDSKSQVFFKMNSLQAGDTAIYYCAKDGSRAYAAMDYWGQGTSVTVSS
VL: DVVMTQTPLSLPVSLGDQASIFCRSSQSLVHRNGITFFHWYLQKPGQSPKLLIYKVSNKFSGVPDRFSGSGSGTDFTLKISRVAPDDLGVYFCSQGTHVPPTFGGGTKLEIK
B15: chKM5908′ mut23 (antibody, V domains shown)
VH: QVQLKQSGPGLVQPSQSLSITCTVSGFSLNNYGVHWVRQPPGKGLEWLGVTWSAGTTAYNAAFASRLSISKDDSKSQVFFKMNSLQAGDTAIYYCAKDGSRYYTAMDYWGQGTSVTVSS
VL: DVVMTQTPLSLPVSLGDQASIFCRSSQSLVHRNGITFFHWYLQKPGQSPKLLIYKISNRFSGVPDRFSGSGSGTDFTLKISRVAPDDLGVYFCSQGTHVPPTFGGGTKLEIK

Data on 15 molecules can be found in patent US20240026017A1 (Kyowa Kirin, published 2024).

Where only a bound is given, the exact number is not on record here.

One test has as its target T1, human CCR3. The experiment in a line: flow cytometry on CHO-S-hCCR3 cells, hybridoma culture supernatant diluted 10-fold. The text has this:
As test antibodies, each hybridoma culture supernatant diluted 10-fold, an existing mouse anti-human CCR1 monoclonal antibody 53504 antibody (R & D Technologies), and a mouse anti-human CCR3 monoclonal antibody 444-11 antibody (MBL) were used.
Regarding the measurement results, the fluorescence intensity when a certain cell was stained with a certain test antibody (each hybridoma culture supernatant, 53504 antibody or 444-11 antibody) and a secondary antibody was divided by the fluorescence intensity when the cell was stained only with the secondary antibody. […] In Table 2, the results are indicated as A and B, respectively.
(In general: Flow cytometry measures light scatter and fluorescence of single cells or particles in a stream.)
In the case of B1, the “fluorescence intensity ratio (test antibody + secondary / secondary only)” value is below 10 fold. The same measure, in the same setting: the same measure for B2: below 10 fold; for B3: below 10 fold. Regarding B4, the “fluorescence intensity ratio (test antibody + secondary / secondary only)” value was below 10 fold. Turning to B5, the “fluorescence intensity ratio (test antibody + secondary / secondary only)” value was below 10 fold.

The target in a further test is T2, human CC chemokine receptor 1 (human …). The experiment in a line: flow cytometry on CHO-S-hCCR1 cells; bound = fluorescence 10 times or more that of isotype control chDNP1. How it is done: The antigen affinity of the chKM5908′ antibody, which is a VL-substituted chimeric antibody, was measured by flow cytometry using the CHO-S-hCCR1 cells produced in Example 2. The cells were collected by centrifugation, the supernatant was removed, and the cells were suspended in PBS (Staining Medium, hereinafter, abbreviated as SM) containing 2% fetal bovine serum (FBS), 0.05% NaN₃, and 1 mM EDTA. Next, the cells were seeded in a 96-well plate so that the number of cells is 1×10⁵ per well, and the chKM5908′ antibody was added at each final concentration of 10,000, 2,000, 400, 80, 16, and 3.2 ng/mL, and the reaction was performed at 4° C. for 60 minutes. After washing the cells with SM, Goat F (ab′)₂ Anti-Human IgG PE (γ chain specific) (Southern Biotech) diluted 500-fold with SM was added and reacted at 4° C. for 60 minutes. After washing the cells with SM, the cells were resuspended in 50 μL of SM, and the fluorescence intensity was measured by the flow cytometry (FACS Canto II, BD Biosciences).
1996 June; 33 (9):759-68, hereinafter, referred to as chDNP1)] were determined to be bound to the human CCR1.
Consider B6, for which the binding result is “binds”.

Consider B7, for which the binding result is given as “binds”. In the case of B8, the binding result was “binds”. Consider B9, for which the binding result was “binds”. Same read-out and setting: the same measure for B10: “binds”. Consider B11, for which the binding result is “binds”.

For the molecule B12, the binding result is on record as “binds”. Same read-out and setting: the value for B13 was “binds”; that for B14 was “binds”; that for B15 was “binds”.
